T1: peptide C, QKRPRRKDTP (type-II PKG substrate)
T1 chain: QKRPRRKDTP

T2: peptide D, RKRSRAE (H2Btide, type-I PKG peptide substrate)
T2 chain: RKRSRAE

T3: BPDEtide, RKISASEFDRPLR (peptide B, type-I PKG peptide substrate)
T3 chain: RKISASEFDRPLR

T4: peptide A, RKISASGP (type-I PKG peptide substrate)
T4 chain: RKISASGP

B1: recombinant bovine PKG type-Iα (protein)
chain: MSELEEDFAKILMLKEERIKELEKRLSEKEEEIQELKRKLHKCQSVLPVPSTHIGPRTTRAQGISAEPQTYRSFHDLRQAFRKFTKSERSKDLIKEAILDNDFMKNLELSQIQEIVDCMYPVEYGKDSCIIKEGDVGSLVYVMEDGKVEVTKEGVKLCTMGPGKVFGELAILYNCTRTATVKTLVNVKLWAIDRQCFQTIMMRTGLIKHTEYMEFLKSVPTFQSLPEEILSKLADVLEETHYENGEYIIRQGARGDTFFIISKGKVNVTREDSPNEDPVFLRTLGKGDWFGEKALQGEDVRTANVIAAEAVTCLVIDRDSFKHLIGGLDDVSNKAYEDAEAKAKYEAEAAFFANLKLSDFNIIDTLGVGGFGRVELVQLKSEESKTFAMKILKKRHIVDTRQQEHIRSEKQIMQGAHSDFIVRLYRTFKDSKYLYMLMEACLGGELWTILRDRGSFEDSTTRFYTACVVEAFAYLHSKGIIYRDLKPENLILDHRGYAKLVDFGFAKKIGFGKKTWTFCGTPEYVAPEIILNKGHDISADYWSLGILMYELLTGSPPFSGPDPMKTYNIILRGIDMIEFPKKIAKNAANLIKKLCRDNPSERLGNLKNGVKDIQKHKWFEGFNWEGLRKGTLTPPIIPSVASPTDTSNFDSFPEDNDEPPPDDNSGWDIDF
B2: recombinant His-apPKG (Aplysia protein kinase G with N-terminal His tag, expressed in baculovirus/Sf9 cells) (protein)
chain: MGNGASSNTHFTIDGESMDVHKVKALVPELRHELRRRDKIIEQYDSQVRQKDELLKEKEAEIARLKEEVHKLKSVLQLKVDTLKAQESKPDLLSTIDENQAEPTAPRGPAKKQGVSGESPSSKTLGYVDLTHHEKDFKSKQLIKDAILSNEFIKVLAATQLREIIDCMYEKRVPKACYIIKGGERGEHLYVCADGLLEVHKEDKRLGEIKSGGLFGELAILYNCKRTASVKAVTHTTLWVLDRRVFQAIMMKTGLQRREENMAFLKSVPLLKNLPSDKLAKMSDVLEYDFFHENEYIIREGAAGDTFFILNKGEVKVTQKIAGHAEPKEVRRLKRGDYFGEKALLSEDRRTANVIALPPGVECLTVDRESFTQFVGDLNELRNKDYGDEARGAERRSGSDSTVSPVSERPVAKEFENCSLDDLQLVTTLGMGGFGRVELVQLSKEKGKTFALKCLKKKHIVETRQQEHIYSEKKIMMEADSPFITKLHKTFRDRKYVYMLMEVCLGGELWTILRDRGNFDDLTARFCVACVLEAFSYLHAKGIIYRDLKPENLLLDARGYVKLVDFGFAKKIGVGKKTWTFCGTPEYVAPEIILNKGHDHSADYWSLGILMYELLNGTPPFSGSDPMRTYNIILKGIDHIEFPKKISRSAHVLIKKLCRDNPMERLGYGKNGISDIRKNKWFQGFDWDGLMDLTLTPPIVPKVKNPTDTSNFDSYPRDMDIAADELSGWDIDF

Assays:
[1] = target: T1, peptide C, QKRPRRKDTP (type-II PKG …)
[2] = target: purified recombinant VASP-GST (vasodilator-stimulated phosphoprotein with C-terminal GST epitope tag), P70460
Sequence of purified recombinant VASP-GST (vasodilator-stimulated phosphoprotein with C-terminal GST epitope tag), P70460 (P70460 whole entry): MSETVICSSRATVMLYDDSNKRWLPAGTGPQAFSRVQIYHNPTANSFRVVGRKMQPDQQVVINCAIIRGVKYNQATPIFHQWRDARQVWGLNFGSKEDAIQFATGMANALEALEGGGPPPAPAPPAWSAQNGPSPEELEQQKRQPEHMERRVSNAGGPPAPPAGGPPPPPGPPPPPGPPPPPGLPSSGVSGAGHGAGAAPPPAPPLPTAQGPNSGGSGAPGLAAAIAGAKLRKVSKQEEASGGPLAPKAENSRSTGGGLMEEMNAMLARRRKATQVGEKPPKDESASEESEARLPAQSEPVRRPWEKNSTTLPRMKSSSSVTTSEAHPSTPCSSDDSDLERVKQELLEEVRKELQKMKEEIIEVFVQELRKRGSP

[3] = target: T2, peptide D, RKRSRAE (H2Btide, type-I PKG …)
[4] = target: T3, BPDEtide, RKISASEFDRPLR (peptide B, …)
[5] = target: T4, peptide A, RKISASGP (type-I PKG peptide …)
[6] = target: recombinant mammalian ERK2 (MAPK p42 protein, bacterial recombinant, already containing phospho-tyrosine-185)
Sequence of recombinant mammalian ERK2 (MAPK p42 protein, bacterial recombinant, already containing phospho-tyrosine-185) (P28482 2-360): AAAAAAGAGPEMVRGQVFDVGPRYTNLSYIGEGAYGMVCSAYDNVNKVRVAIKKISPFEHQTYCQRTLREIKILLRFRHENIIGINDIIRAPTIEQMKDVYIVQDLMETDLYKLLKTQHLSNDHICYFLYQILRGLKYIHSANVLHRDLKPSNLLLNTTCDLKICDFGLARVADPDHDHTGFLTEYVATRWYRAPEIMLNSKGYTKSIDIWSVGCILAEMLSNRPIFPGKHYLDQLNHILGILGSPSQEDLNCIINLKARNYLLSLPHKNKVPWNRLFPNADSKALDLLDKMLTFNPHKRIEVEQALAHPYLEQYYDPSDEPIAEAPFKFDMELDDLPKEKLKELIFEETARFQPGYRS

Protein | kinase activity on peptide substrates [1] | phosphorylation of VASP at serine 239 (Western blot with anti-phospho-VASP (Ser 239)) [2] | kinase activity on peptide substrates [3] | kinase activity on peptide substrates [4] | kinase activity on peptide substrates [5] | ERK2 activity (production of phospho-Elk1) compared with activation by MEK1 [6] | activation of ERK2 (phosphorylation of Elk1 by ERK2 after incubation with apPKG) [6] | phosphorylation of ERK2 at T183 (Western blot with antibody to ERKpT183) [6] | phosphorylation of ERK2 at Y185 (Western blot with antibody to ERKpY185) [6] | dual phosphorylation of ERK2 by apPKG in the presence of 1 µg of BPDEtide (Western blot with Ab^pTpYmapk) [4] | kinase activity (transfer of ^32P from [^32P]ATP to BPDEtide) [4]
B1 | neither kinase phosphorylated peptide C | both the bovine and Aplysia kinases phosphorylated this site | both kinases readily phosphorylated several PKG peptide substrates | both kinases readily phosphorylated several PKG peptide substrates | both kinases readily phosphorylated several PKG peptide substrates | – | – | – | – | – | –
B2 | neither kinase phosphorylated peptide C | both the bovine and Aplysia kinases phosphorylated this site | both kinases readily phosphorylated several PKG peptide substrates | both kinases readily phosphorylated several PKG peptide substrates | both kinases readily phosphorylated several PKG peptide substrates | apPKG produced an ERK2 with similar activity as that produced by MEK1 | apPKG activated ERK2 to phosphorylate Elk1 | there was an increase in the phosphorylation of the -T- in the presence of apPKG | There was no increase in phosphorylation of the -Y- when ERK2 was incubated with apPKG | The activation was specific, because it was reduced in the presence of BPDEtide | Inactive apPKG was activated by 100 nM 8-Br-cGMP and readily phosphorylated BPDEtide

Reference: patent US20060216339
